# According to paper PMC9113939, “Snapshots of actin and tubulin folding inside the TRiC chaperonin” (Nature Structural & Molecular Biology, 2022):
# B1: nanobody Nb18 (VHH)
# VHH: QVQLVESGGGLVQAGGSLRLSCGASGTFFRINDMGWYRQASGKQRELVASITRGGTTDYADSVKGRFTISRDNAKNTVYLQMNSLKPEDTAVYYCKANRNWGREWDDYWGQGTQVTVSS
# notes: Nb18 is modelled in the TRiC–Nb18 structure solved here (PDB 7NVL); llama nanobody raised against CCT5 homo-hexadecamer, in vector pMESy4; Starting model was a homology model on PDB 6QX4 chain C (another nanobody); also called CA14679; source: E. coli, purified (Ni-NTA, SEC)
# Key:
# Details in all cases: both partners purified
# recombinant CCT4 = target: T1, recombinant CCT4 (Homo sapiens, UniProt P50991); test: BLI; Octet RED384, 25 °C, 20 mM HEPES pH 7.5, 150 mM NaCl, 0.1% BSA; biotinylated CCT5 on streptavidin sensors; Nb18 40 μM to 39 nM; steady-state fit
# T1 construct: CCT4 subunit of TRiC, expressed recombinantly; Construct not described
# T1 sequence (P50991 whole entry): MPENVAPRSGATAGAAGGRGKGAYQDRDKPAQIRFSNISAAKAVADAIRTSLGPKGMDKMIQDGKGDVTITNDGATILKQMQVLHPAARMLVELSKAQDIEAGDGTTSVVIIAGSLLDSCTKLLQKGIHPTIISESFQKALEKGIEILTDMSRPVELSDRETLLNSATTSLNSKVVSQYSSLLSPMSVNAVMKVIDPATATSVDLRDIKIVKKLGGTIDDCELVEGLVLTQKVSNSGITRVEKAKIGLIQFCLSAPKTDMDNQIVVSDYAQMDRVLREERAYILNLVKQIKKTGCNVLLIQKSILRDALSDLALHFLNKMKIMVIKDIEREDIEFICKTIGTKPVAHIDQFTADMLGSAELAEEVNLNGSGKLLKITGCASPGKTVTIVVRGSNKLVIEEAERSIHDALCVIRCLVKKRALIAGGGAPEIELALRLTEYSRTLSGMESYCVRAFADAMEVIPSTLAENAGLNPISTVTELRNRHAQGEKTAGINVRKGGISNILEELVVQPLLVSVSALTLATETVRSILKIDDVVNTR
# [1] = target: T2, recombinant human CCT5 homo-oligomer (hexadecameric form, CCT5_(16)) (Homo sapiens (Human)., UniProt P48643, biotin (for BLI)); test: as above
# T2 construct: it mentions that recombinant CCT5 was earlier made with a C-terminal His-tag; also called recombinant CCT5; overexpressed CCT5; source: E. coli, recombinant; copies: 16
# T2 sequence (P48643 whole entry): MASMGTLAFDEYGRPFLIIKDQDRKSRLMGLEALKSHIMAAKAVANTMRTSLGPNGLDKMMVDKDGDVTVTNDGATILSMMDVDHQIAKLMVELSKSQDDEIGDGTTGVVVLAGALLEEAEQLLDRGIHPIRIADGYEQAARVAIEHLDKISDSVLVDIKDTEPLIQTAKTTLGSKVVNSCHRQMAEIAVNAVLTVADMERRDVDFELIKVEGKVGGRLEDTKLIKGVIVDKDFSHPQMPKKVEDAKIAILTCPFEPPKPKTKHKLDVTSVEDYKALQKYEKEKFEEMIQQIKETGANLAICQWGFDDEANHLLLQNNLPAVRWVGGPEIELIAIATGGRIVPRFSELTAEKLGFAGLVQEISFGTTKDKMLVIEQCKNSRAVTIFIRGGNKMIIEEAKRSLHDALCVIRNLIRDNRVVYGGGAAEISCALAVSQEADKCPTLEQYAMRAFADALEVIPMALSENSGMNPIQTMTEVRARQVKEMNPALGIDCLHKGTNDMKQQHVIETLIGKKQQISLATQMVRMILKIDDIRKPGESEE
# [2] = target: T3, endogenous human TCP-1 ring complex (TRiC), CCT5 tagged with 3×FLAG/Spytag (human, UniProt P17987;P78371;P49368;P50991;P48643;P40227;Q99832;P50990); test: cryo-EM structure; purified TRiC (1.5 mg/ml) premixed with Nb18 at 1:1 molar ratio, 1 mM ATP, 5 mM MgCl2, AlFx; closed and open states
# T3 construct: CCT1 subunit of human TRiC; CCT2 subunit of human TRiC; CCT3 subunit of human TRiC; CCT4 subunit of human TRiC; CCT5 subunit of human TRiC, tag knocked into the genomic locus; CCT6 subunit of human TRiC; predominantly the CCT6A isoform by MS/MS and side-chain modelling; CCT7 subunit of human TRiC; CCT8 subunit of human TRiC; Hexadecamer of two back-to-back rings of eight paralogous subunits; also …
binder,measurement,setting,value
B1,binding result,recombinant CCT4,no binding (tested: Nb18 40 μM to 39 nM (methods))
same,Kd,[1],86 nM
same,stoichiometry N,[2],2
